We go through 15 molecules from patent US12559545 (VANDERBILT UNIVERSITY, dated 2026).

The term EC50 denotes the concentration that produces a half-maximal response. A low value points to higher potency in that assay.

One experiment addresses T1, NiVM-G.
T1 chain: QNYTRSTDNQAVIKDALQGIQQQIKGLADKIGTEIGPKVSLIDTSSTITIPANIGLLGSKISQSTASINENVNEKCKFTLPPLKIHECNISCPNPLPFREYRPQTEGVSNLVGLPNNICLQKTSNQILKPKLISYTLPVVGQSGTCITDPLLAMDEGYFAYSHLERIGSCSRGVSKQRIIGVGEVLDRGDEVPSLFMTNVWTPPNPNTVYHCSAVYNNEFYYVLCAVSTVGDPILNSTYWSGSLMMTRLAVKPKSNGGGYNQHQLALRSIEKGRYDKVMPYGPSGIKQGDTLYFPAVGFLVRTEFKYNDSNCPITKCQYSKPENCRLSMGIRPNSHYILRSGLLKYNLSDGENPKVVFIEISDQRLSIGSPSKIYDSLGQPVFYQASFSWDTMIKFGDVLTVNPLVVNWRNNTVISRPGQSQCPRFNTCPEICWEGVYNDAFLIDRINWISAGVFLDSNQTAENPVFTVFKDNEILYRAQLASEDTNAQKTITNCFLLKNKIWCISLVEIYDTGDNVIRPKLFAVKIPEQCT

The target in the next experiment is T2, HeV-G.
T2 chain: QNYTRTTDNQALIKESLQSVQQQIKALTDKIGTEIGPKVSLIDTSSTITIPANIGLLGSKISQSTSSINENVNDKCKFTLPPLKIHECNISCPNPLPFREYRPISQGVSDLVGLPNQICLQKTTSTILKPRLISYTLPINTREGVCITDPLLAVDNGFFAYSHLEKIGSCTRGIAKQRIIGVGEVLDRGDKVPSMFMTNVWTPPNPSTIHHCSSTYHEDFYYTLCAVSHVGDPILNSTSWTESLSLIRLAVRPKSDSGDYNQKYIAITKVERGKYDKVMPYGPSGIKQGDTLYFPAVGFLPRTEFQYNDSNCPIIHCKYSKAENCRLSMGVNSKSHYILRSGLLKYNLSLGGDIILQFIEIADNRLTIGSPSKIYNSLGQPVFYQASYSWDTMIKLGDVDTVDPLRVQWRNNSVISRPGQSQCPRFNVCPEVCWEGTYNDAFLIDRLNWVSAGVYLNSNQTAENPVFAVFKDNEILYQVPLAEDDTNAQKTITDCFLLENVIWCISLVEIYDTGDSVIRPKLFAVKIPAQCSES

B1: HENV-226 (antibody, V domains shown)
VH: EERLVQSGGGLAQPGQSLRLSCAGFGFTFTRYEMNWVRQAPGKGLEWIAHISTRGDTISYADSVKGRATISRDDTNNSLDLQMDSLRAEDTAIYFCARDRGSLSTRPPDSYHYYYHGMDVWGQGTTVIVSS
VL: EIVLTQSPATLSLSPGERATLSCRASQSIDTYLAWYQQKPGQAPRLLIYDASNRATGIPARFSGSGSGTDFSLTISSLEPDDFAVYYCQQRSNRPPRYTFGLGTRLEIK
Take B1: in the experiment with NiVM-G, the EC50 is 0.259 nM.

B2: HENV-103 (antibody, V domains shown)
VH: QVQLQGSGPGLVKPSQTLSLTCSVSGGSVSRSGYYWGWIRQHPGKGLECIGYIYYSGITYYNPSLSGRLTISVDTSKNQFSLELSSVTAADTAVYYCARVWLGGGVFDFWGQGSLVTVSS
VL: EIVMTQSPATLSVSPGEGATLSCRASQSVSSNLAWYQQKPGQAPRLLIYDASTRATGIPARFSGSGSGTEFTLTISSLQSEDFAVYYCQQYNDWRTFGRGTKVEMR
For B2, the half-maximal effective concentration (EC50) with NiVM-G was found to be 0.611 nM; in the experiment with HeV-G it was 0.806 nM.

B3: HENV-122 (antibody, V domains shown)
VH: EVQLLESGGGLVQPGGSLRLSCAASGFTFSTNAMSWVRQAPGKGLEWVSTVSGSGAHPNYGDSVKGRFTISRVNSKNTLFLQMSSLRAEDTAIYYCARVSTVTVGGHIPRGYYFDYWGQGTLVTVSS
VL: EILLTQSPGTLSLSPGERATLSCRASQSASSSYLAWYQQKPGQAPRLLIYGASTRATGIPDRFSGSGSGTEFTLTISRLESEDFAVYYCHHYGSSRTFGQGTKVEVK
B3: the EC50 was found to be 0.407 nM with NiVM-G and 0.387 nM in the experiment with HeV-G.

B4: HENV-58 (antibody, V domains shown)
VH: QVQLVQSGAEVKKPGSSVKVSCKASGGTFSNYVISWVRQAPGQGFEWMGRIIPMIGISNYAQKFQDRVTITADKDESTTTAYMELRGLRSEDTAMYYCASSTVTEVGAWGQGTLVTVSS
VL: AIQLTQSPSSLSASIGDRVTITCRASQGISSALAWFQQKPGKPPILLIYDASSLESGVPARFSGSGSGTDFTLTISSLQPEDFATYYCQQFYNHPLTFGPGTKVDIK
Consider B4, for which the EC50 turned out to be 0.739 nM in the experiment with NiVM-G and 1.14 nM with HeV-G.

B5: HENV-242 (antibody, V domains shown)
VH: QVQLVQSGAEVKKPGSSVTVSCKTSGGTFSGYAVSWVRQAPGQGLEWMGRIVPQFNIPNYAQKFQDRVTITADESTGTSYMELSSLRSDDTAVFYCARENIQTIFGVVAMMGGGGYFDSWGQGTLVTVSS
VL: DIQMTQSPSSLSASVGDRVTITCQANQDINTYLNWYLQKPGKAPQLLVFDASNLVTGVPSRFSGGGSRTDFTLTIDSLQPEDIGTYYCQQYDHLPRRTFTFGPGTKVDLK
Take B5: the values for the EC50 with NiVM-G and in the experiment with HeV-G were 0.716 nM and 6.6 nM, respectively.

B6: HENV-99 (antibody, V domains shown)
VH: QVLLVQSGAEVRKPGASVKVSCRASGYTFTDYYMHWVRQAPGQGLEWMGWINPNSGATKYAQKFQGRVTLTRDTSINTAYMELSGLRSVDTAVFYCASVPPSGFFYWGSDYWGQGTLVTVSS
VL: DVVLTQSPLSLPVTLGQPASISCRSSQSLVYSDGTTYLNWFQQRPGQSPRRLIYKVSYRDSGVPDRFSGSGSGTDFTLEISRVEAEDVGIYYCMHGTHWETWTFGQGTKVEIK
For the molecule B6, the EC50 was 0.294 nM with NiVM-G and 0.42 nM with HeV-G.

B7: HENV-117 (antibody, V domains shown)
VH: QVQLQQWGAGLLKPSETLSLTCDLSGGSFTNYYWTWIRHLPGKGLEWLGEINHSGRTNYSPSLKSRVTISVDTSKNQFSLRLSSVTAADTAVYYCARDIRKLAPKPHSYDLYYGMDVWGQGTTVTVSS
VL: EIVLTQSPGTLSLSPGERATLSCRASQSVGSNYLTWYQQKPGQPPRLLIYGASNRAAGIPDRFSGSGSGTDFTLTISRLEPEDFAVYYCQQYETSSRTFGQGTKVDIR
Take B7: the EC50 with NiVM-G worked out at 1.23 nM; with HeV-G, 1.06 nM.

B8: HENV-98 (antibody, V domains shown)
VH: AVQLVESGGGLVQPGGSLRLSCEASGFTFSGYWMSWVRQAPGKGLEWVANIKGDGSEKYYVDSVKGRFTIFRDNAKTSLYLQVNSLRAEDTAVYYCARERHFLAARPGYYIYSGLDVWGPGTTVTVSS
VL: DIQMTQSPSSLSASVGDRVTITCRASQSIDNYLNWYQQKPGKVPKLLIYAASNLQSGVPSKFSGGGSGTDFTLTISSLQPDDFATYYCQQSFGTPRTFGQGTRVEIK
B8: the EC50 with NiVM-G is 0.396 nM; with HeV-G, 0.434 nM.

B9: HENV-170 (antibody, V domains shown)
VH: EVQLLESGGGLVQPGGSLRLSCAASGFTFSSYTMSWVRQAPGKGLEWVSGISGSGGNTYYAGSVKGRFTISRDNSKNTLYLQMNSLRAEDTAVYYCAKDGYTGQQLMRRGPWWFDPWGQGTLVTVSS
VL: SYVLTQPPSVSVAPGQTARITCGGNNIGSKSVHWYQQKPGQAPVLVVYDDSDRPSGIPERFSGSKSGNTATLTISRVEAGDEADYYCQVWDSSSDHVVFGGGTKLTVL
Take B9: the figures for the EC50 with NiVM-G and with HeV-G were 0.378 nM and 0.518 nM, respectively.

B10: HENV-150 (antibody, V domains shown)
VH: EVQLLESGGGLVQPGGSLRLSCAASGFTFSSSAMSWVRQTPGKGLEWVSTISGSGANTYYAASVKGRFPISRDNSKNTLFLQMNSLRAEDTAVYYCAKVSTVTFGGHVPRGSYFDYWGQGTQVTVSS
VL: SYVLTQPPSVSVAPGQTARIPCGGNNIGSKSVHWYQQKPGQAPVLVVYDENDRPSGIPERFSASKSGNTATLTISRVEAGDEADYYCQVWDSRSDHYVFGTGTKVTVL
Take B10: the EC50 in the experiment with NiVM-G was determined as 0.27 nM; with HeV-G, 0.328 nM.

B11: HENV-141 (antibody, V domains shown)
VH: QVQLVQSGAEVKKPGSSVKVSCKASGGTFSSYTISWVRQAPGQGLEWMGRIIPISGITNYAQKFQGRVTITADKSTSTAYMELSSLRSEDTAVYYCAKDCYYGSGTYYGCRADYQWHHTMDVWGQGTTVTVSS
VL: DIQMTQSPSSLSASVGDRVTITCRASQGIRNDLGWFQQKPGKAPKRLIYAASSLQSGVPSRFSGSGSGTEFTLTISSLQPEDFATYFCLQHNTYPLTFGQGTKVEIK
Consider B11, for which the values for the concentration giving a half-maximal response (EC50) with NiVM-G and in the experiment with HeV-G were 0.266 nM and 0.326 nM, respectively.

B12: HENV-184 (antibody, V domains shown)
VH: QVQLVQSGTEVKNPGSSVKVSCKASGGTFSGFGISWVRQAPGQGLEWMGGVLPIFGSPNYAQKFQGRVTITADESTGTAYMDLSSLRSDDTAMYYCARDQSGGFFDYWGQGTLVIVSS
VL: EIVLTQSPATLSLSPGERATLSCRASQSVSSNLAWYQQKPGQAPRLLIYDASDRATGVPARFSGSGSGTDFTLTISSLEPEDFALYYCQQRYNWRVTFGQGTRLEIK
Regarding B12, the 50% effective concentration (EC50) was 0.622 nM with NiVM-G and 1.19 nM with HeV-G.

B13: HENV-222 (antibody, V domains shown)
VH: QVQLQESGPGLVKPSETLSLTCTVSGGSIDSYYWSWIRQPAGKGLEWIGRIYPSGTTNYNPSLKSRVTMSVDTSKNQFSLKVTSVTAADTAVYYCARMQTGFGSSLFFVPYFDNWGQGTLVTVSS
VL: EIVLTQSPATLSLSPGERATLSCRASQSVSSYLAWYQQKPGQAPRLLIYDASNRATGIPARFSGSGSGTDFTLTISSLEPEDFAVYYCQQRGNWPLTFGGGTKVEIK
As to B13, the EC50 with NiVM-G was determined as 0.586 nM; in the experiment with HeV-G, 5.66 nM.

B14: HENV-100 (antibody, V domains shown)
VH: QVQLVQSGAEVKKPGASVKVSCKASGYTFTSYYINWVRQAPGQGLEWVGTINPSGGSTTYAQKFQGRVTVTRDTSTSTVYMDLSGLRSGDTAVYYCARDRKGLAATPVYSDYYYGMDVWGQGTTVTVSS
VL: EIVLTQSPATLSLSPGERATLSCRASQSVSSFLAWYQQKPGQAPRLLISDASKRATGIPARFSGSGSGTDFSLTISSLEAEDFAVYYCQQSTNWRITFGQGTRLELK
B14: the EC50 was 0.316 nM with NiVM-G and 0.469 nM with HeV-G.

B15: HENV-142 (antibody, V domains shown)
VH: QVRLQESGPRLVKPSQTLSLTCTVSGGSISSRDYYWSWIRQHPGKGLEWIGYIYYSGTTYYNPSLESRVTLSLDTSKNQFSLDLTSVTAADTAVYHCARVWLGGGVFDFWGQGTLVTVSA
VL: EIVMTQSPDTLSVSPGERATLSCRASHSVTTNLAWYQQRPGQAPRLLIFDASTRATGIPARFSGSGSGTEFTLTIGSLQSEDFAVYYCQQYNDGRTFGQGTKVEIK
With B15, the results for the EC50 with NiVM-G and in the experiment with HeV-G were 1.03 nM and 1.86 nM, respectively.
